± gives the standard deviation of the averaged measurements.
Assay: total protein half-life in vivo (active degradation + dilution); higher = more stable protein
[1] = E. coli NCM3722 delta-clpP delta-lon delta-hslV, growth: N-lim chemostat, doubling time 6 h
[2] = E. coli NCM3722 delta-clpP, growth: N-lim chemostat, doubling time 6 h
[3] = E. coli NCM3722 delta-hslV, growth: N-lim chemostat, doubling time 6 h
[4] = E. coli NCM3722 delta-lon, growth: N-lim chemostat, doubling time 6 h
[5] = E. coli NCM3722 delta-smpB, growth: N-lim chemostat, doubling time 6 h
[6] = wild type E. coli NCM3722, growth: C-lim chemostat, doubling time 3 h
[7] = wild type E. coli NCM3722, growth: N-lim chemostat, doubling time 6 h
[8] = wild type E. coli NCM3722, growth: N-lim chemostat, doubling time 12 h
[9] = wild type E. coli NCM3722, growth: P-lim chemostat, doubling time 6 h
[10] = wild type E. coli NCM3722, growth: P-lim chemostat, doubling time 12 h
[11] = wild type E. coli NCM3722, growth: C-lim chemostat, doubling time 6 h
[12] = wild type E. coli NCM3722, growth: C-lim chemostat, doubling time 12 h

Row | Substance | total protein half-life in vivo [1] [h] | total protein half-life in vivo [2] [h] | total protein half-life in vivo [3] [h] | total protein half-life in vivo [4] [h] | total protein half-life in vivo [5] [h] | total protein half-life in vivo [6] [h] | total protein half-life in vivo [7] [h] | total protein half-life in vivo [8] [h] | total protein half-life in vivo [9] [h] | total protein half-life in vivo [10] [h] | total protein half-life in vivo [11] [h] | total protein half-life in vivo [12] [h]
1 | MNMEEIVALSVKHNVSDLHLCSAWPARWRIRGRMEAAPFDTPDVEELLREWLDDDQRAILLENGQLDFAVSLAENQRLRGSAFAQRHGISLALRLLPSHCPQLEQLGAPTVLPELLKSENGLILVTGATGSGKSTTLAAMVGYLNQHADAHILTLEDPVEYLYASQRCLIQQREIGLHCMTFASGLRAALREDPDVILLGELRDSETIRLALTAAETGHLVLATLHTRGAAQAVERLVDSFPAQEKDPVRNQLAGSLRAVLSQKLEVDKQEGRVALFELLINTPAVGNLIREGKTHQLPHVIQTGQQVGMITFQQSYQHRVGEGRL | 5.68 ± 0.4 | – | – | – | – | – | – | – | – | – | – | –
2 | MTDKTIAFSLLDLAPIPEGSSAREAFSHSLDLARLAEKRGYHRYWLAEHHNMTGIASAATSVLIGYLAANTTTLHLGSGGVMLPNHSPLVIAEQFGTLNTLYPGRIDLGLGRAPGSDQRTMMALRRHMSGDIDNFPRDVAELVDWFDARDPNPHVRPVPGYGEKIPVWLLGSSLYSAQLAAQLGLPFAFASHFAPDMLFQALHLYRSNFKPSARLEKPYAMVCINIIAADSNRDAEFLFTSMQQAFVKLRRGETGQLPPPIQNMDQFWSPSEQYGVQQALSMSLVGDKAKVRHGLQSILRETDADEIMVNGQIFDHQARLHSFELAMDVKEELLG [P0ADV5] | 4.46 ± 0.36 | 4.24 ± 0.94 | 5.06 ± 1.8 | 3.94 ± 0.19 | 3.55 ± 0.21 | 3.07 ± 0.28 | 4.47 ± 1.3 | 5.76 ± 1.3 | 6.06 ± 0.55 | 11.1 ± 0.18 | – | –
3 | MGMLEARELLCERDERTLFSGLSFTLNAGEWVQITGSNGAGKTTLLRLLTGLSRPDAGEVLWQGQPLHQVRDSYHQNLLWIGHQPGIKTRLTALENLHFYHRDGDTAQCLEALAQAGLAGFEDIPVNQLSAGQQRRVALARLWLTRATLWILDEPFTAIDVNGVDRLTQRMAQHTEQGGIVILTTHQPLNVAESKIRRISLTQTRAA | 6.22 | – | – | – | 5.33 | – | 5.94 ± 0.86 | – | – | – | – | –
4 | MNNLPLLNDLRVFMLVARRAGFAAVAEELGVSPAFVSKRIALLEQTLNVVLLHRTTRRVTITEEGERIYEWAQRILQDVGQMMDELSDVRQVPQGMLRIISSFGFGRQVVAPALLALAKAYPQLELRFDVEDRLVDLVNEGVDLDIRIGDDIAPNLIARKLATNYRILCASPEFIAQHGAPKHLTDLSALPCLVIKERDHPFGVWQLRNKEGPHAIKVTGPLSSNHGEIVHQWCLDGQGIALRSWWDVSENIASGHLVQVLPEYYQPANVWAVYVSRLATSAKVRITVEFLRQYFAEHYPNFSLEHA | 5.43 ± 0.67 | 1.82 ± 0.43 | – | – | 1.16 | 0.948 ± 0.17 | – | – | 0.535 | – | 2.24 ± 0.21 | 3.54 ± 0.1
5 | P76578 | 6.589 ± 0.03 | – | 6.54 ± 0.12 | 6.81 ± 0.67 | 6.09 ± 0.11 | 3.08 ± 0.13 | 6.17 ± 0.06 | 13.1 ± 0.32 | 6.16 ± 0.085 | 12.7 ± 0.14 | 6.17 ± 0.39 | 13.4 ± 0.82
6 | MMEILRGSPALSAFRINKLLARFQAARLPVHNIYAEYVHFADLNAPLNDDEHAQLERLLKYGPALASHAPQGKLLLVTPRPGTISPWSSKATDIAHNCGLQQVNRLERGVAYYIEAGTLTNEQWQQVTAELHDRMMETVFFALDDAEQLFAHHQPTPVTSVDLLGQGRQALIDANLRLGLALAEDEIDYLQDAFTKLGRNPNDIELYMFAQANSEHCRHKIFNADWVIDGEQQPKSLFKMIKNTFETTPDHVLSAYKDNAAVMEGSEVGRYFADHETGRYDFHQEPAHILMKVETHNHPTAISPWPGAATGSGGEIRDEGATGRGAKPKAGLVGFSVSNLRIPGFEQPWEEDFGKPERIVTALDIMTEGPLGGAAFNNEFGRPALNGYFRTYEEKVNSHNGEELRGYHKPIMLAGGIGNIRADHVQKGEINVGAKLVVLGGPAMNIGLGGGAASSMASGQSDADLDFASVQRDNPEMERRCQEVIDRCWQLGDANPILFIHDVGAGGLSNAMPELVSDGGRGGKFELREILSDEPGMSPLEIWCNESQERYVLAVAADQLPLFDELCKRERAPYAVIGEATEELHLSLHDRHFDNQPIDLPLDVLLGKTPKMTRDVQTLKAKGDALAREGITIADAVKRVLHLPTVAEKTFLVTIGDRSVTGMVARDQMVGPWQVPVANCAVTTASLDSYYGEAMAIGERAPVALLDFAASARLAVGEALTNIAATQIGDIKRIKLSANWMAAAGHPGEDAGLYEAVKAVGEELCPALGLTIPVGKDSMSMKTRWQEGNEEREMTSPLSLVISAFARVEDVRHTITPQLSTEDNALLLIDLGKGNNALGATALAQVYRQLGDKPADVRDVAQLKGFYDAIQALVAQRKLLAYHDRSDGGLLVTLAEMAFAGHCGIDADIATLGDDRLAALFNEELGAVIQVRAADREAVESVLAQHGLADCVHYVGQAVSGDRFVITANGQTVFSESRTTLRVWWAETTWQMQRLRDNPECADQEHQAKSNDADPGLNVKLSFDINEDVAAPYIATGARPKVAVLREQGVNSHVEMAAAFHRAGFDAIDVHMSDLLTGRTGLEDFHALVACGGFSYGDVLGAGEGWAKSILFNDRVRDEFATFFHRPQTLALGVCNGCQMMSNLRELIPGSELWPRFVRNTSDRFEARFSLVEVTQSPSLLLQGMVGSQMPIAVSHGEGRVEVRDAAHLAALESKGLVALRYVDNFGKVTETYPANPNGSPNGITAVTTESGRVTIMMPHPERVFRTVSNSWHPENWGEDGPWMRIFRNARKQLG | 5.77 ± 0.51 | 4.8 ± 0.37 | 4.73 ± 0.32 | 5.07 ± 0.55 | 4.63 ± 0.36 | 3.03 ± 0.051 | 4.72 ± 0.081 | 8.05 ± 0.21 | 6.31 ± 0.075 | 11.5 ± 0.43 | 5.98 ± 0.39 | 10.4 ± 0.62
7 | MSMSTSTEVIAHHWAFAIFLIVAIGLCCLMLVGGWFLGGRARARSKNVPFESGIDSVGSARLRLSAKFYLVAMFFVIFDVEALYLFAWSTSIRESGWVGFVEAAIFIFVLLAGLVYLVRIGALDWTPARSRRERMNPETNSIANRQR [P0AFC3] | 7.01 ± 0.28 | – | 6.15 ± 1.1 | – | 6.317 ± 0.023 | 3.72 ± 0.32 | 6.22 ± 0.18 | – | 6.293 ± 0.024 | 14.3 ± 2.1 | – | 13 ± 0.5
8 | MRVNLLITMIIFALIWPVTALRAAVSKTTWADAPAREFVFVENNSDDNFFVTPGGALDPRLTGANRWTGLKYTGSGTIYQQSLGYIDNGYNTGLYTNWKFDMWLENSPVSSPLTGLRCINWYAGCNMTTSLILPQTTDASGFYGATVTSGGAKWMHGMLSDAFYQYMQQMPVGSSFTMTINACQTSVNYDASSGARCKDQASGNWYVRNVTHTKAANLRLINTHSLAEVFINSDGVPTLGEGNADCRTQTIGSRSGLSCKMVNYTLQTNGLSNTSIHIFPAIANSSLASAVGAYDMQFSLNGSSWKPVSNTAYYYTFNEMKSADSIYVFFSSNFFKQMVNLGISDINTKDLFNFRFQNTTSPESGWYEFSTSNTLIIKPRDFSISIISDEYTQTPSREGYVGSGESALDFGYIVTTSGKTAADEVLIKVTGPAQVIGGRSYCVFSSDDGKAKVPFPATLSFITRNGATKTYDAGCDDSWRDMTDALWLTTPWTDISGEVGQMDKTTVKFSIPMDNAISLRTVDDNGWFGEVSASGEIHVQATWRNIN | 5.48 | 4.16 ± 0.31 | 4.45 ± 0.53 | – | 5.38 ± 0.3 | 2.41 | 5.187 ± 0.038 | 10.3 | 6.55 | 10.9 ± 2.3 | 5.13 ± 0.19 | 10.2 ± 0.39

Source: the supplement of paper PMC11246515
